Source: article PMC3688735

Biological target: mKate
Assay: SEC; gel filtration on a 1x90 cm Econo-column packed with Sephacryl-S200, equilibrated with 25 mM Tris-HCl pH 7.5, 150 mM NaCl; self-association of the purified fluorescent protein

- stoichiometry N: 2
Substance: mKate
